4 molecules from patent US20230055694A1 (INSTIL BIO UK, published 2023) can be followed below.

Assay [1] has as its target T1, rhCEACAM5-Fc (human, UniProt P06731 35-685).
T1 construct: Bought staining reagent; construct limits and Fc not described; also called primary rhCEACAM5-Fc antibody; CEA.hFc protein; not shown: Fc tag detected with anti-IgG-Fc-PE
T1 sequence (looked up): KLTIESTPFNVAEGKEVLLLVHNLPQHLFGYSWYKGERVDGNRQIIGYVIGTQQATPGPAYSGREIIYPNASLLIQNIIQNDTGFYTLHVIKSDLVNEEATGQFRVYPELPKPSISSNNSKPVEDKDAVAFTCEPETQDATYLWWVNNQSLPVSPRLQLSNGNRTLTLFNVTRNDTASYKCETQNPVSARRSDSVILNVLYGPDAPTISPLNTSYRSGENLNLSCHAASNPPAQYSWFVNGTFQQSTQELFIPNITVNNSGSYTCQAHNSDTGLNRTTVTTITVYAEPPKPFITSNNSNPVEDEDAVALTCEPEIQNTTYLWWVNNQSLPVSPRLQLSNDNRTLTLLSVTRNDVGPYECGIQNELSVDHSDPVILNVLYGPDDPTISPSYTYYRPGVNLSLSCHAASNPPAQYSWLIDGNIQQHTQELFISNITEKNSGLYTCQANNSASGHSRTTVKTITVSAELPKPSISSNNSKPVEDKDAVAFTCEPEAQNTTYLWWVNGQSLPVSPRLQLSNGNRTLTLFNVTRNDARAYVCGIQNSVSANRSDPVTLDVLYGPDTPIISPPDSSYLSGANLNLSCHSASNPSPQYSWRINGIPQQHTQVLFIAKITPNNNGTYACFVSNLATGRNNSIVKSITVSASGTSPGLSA
In words: flow cytometry of transduced T cells: CoStAR detected with primary rhCEACAM5-Fc and secondary anti-IgG-Fc-PE (FIG. 26). (In general: In flow cytometry, cells or beads pass a laser one at a time.)

For assay [2], the target named is Human folate receptor alpha (FolR) on cells (human) (UniProt P15328). In words: cell-based or functional assay.

Bounds are passed on as bounds.

Sequence of Human folate receptor alpha (FolR) on cells (human) (P15328 25-234): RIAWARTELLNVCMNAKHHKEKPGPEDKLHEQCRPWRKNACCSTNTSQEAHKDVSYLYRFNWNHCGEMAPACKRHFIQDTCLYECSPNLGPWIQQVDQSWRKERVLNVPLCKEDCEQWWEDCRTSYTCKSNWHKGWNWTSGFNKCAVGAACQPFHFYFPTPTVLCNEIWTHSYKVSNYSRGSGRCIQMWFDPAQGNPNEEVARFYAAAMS

B1: anti-CEA CoStAR CTP232 (OSM1 signal peptide, hMFE23 scFv, AAAGSGGSG linker, CD8 EC spacer, CD8 TM, CD28.CD40) (receptor)
chain: QVKLEQSGAEVVKPGASVKLSCKASGFNIKDSYMHWLRQGPGQRLEWIGWIDPENGDTEYAPKFQGKATFTTDTSANTAYLGLSSLRPEDTAVYYCNEGTPTGPYYFDYWGQGTLVTVSSGGGGSGGGGSGGGGSENVLTQSPSSMSASVGDRVNIACSASSSVSYMHWFQQKPGKSPKLWIYSTSNLASGVPSRFSGSGSGTDYSLTISSMQPEDAATYYCQQRSSYPLTFGGGTKLEIKAAAGSGGSGFVPVFLPAKPTTTPAPRPPTPAPTIASQPLSLRPEACRPAAGGAVHTRGLDFACDIYIWAPLAGTCGVLLLSLVITLYCNHRNRSKRSRLLHSDYMNMTPRRPGPTRKHYQPYAPPRDFAAYRSKKVAKKPTNKAPHPKQEPQEINFPDDLPGSNTAAPVQETLHGCQPVTQEDGKESRISVQERQ
notes: On transduced human T cells
Take B1: in assay [1], the binding result is recorded as “binds”.

B2: anti-CEA CoStAR CTP244 (OSM1 signal peptide, hMFE23 scFv, AAAGSGGSG linker, CD28 (trunc IIH) spacer, CD28 TM, CD28.CD40) (receptor)
chain: QVKLEQSGAEVVKPGASVKLSCKASGFNIKDSYMHWLRQGPGQRLEWIGWIDPENGDTEYAPKFQGKATFTTDTSANTAYLGLSSLRPEDTAVYYCNEGTPTGPYYFDYWGQGTLVTVSSGGGGSGGGGSGGGGSENVLTQSPSSMSASVGDRVNIACSASSSVSYMHWFQQKPGKSPKLWIYSTSNLASGVPSRFSGSGSGTDYSLTISSMQPEDAATYYCQQRSSYPLTFGGGTKLEIKAAAGSGGSGIIHVKGKHLCPSPLFPGPSKPFWVLVVVGGVLACYSLLVTVAFIIFWVRSKRSRLLHSDYMNMTPRRPGPTRKHYQPYAPPRDFAAYRSKKVAKKPTNKAPHPKQEPQEINFPDDLPGSNTAAPVQETLHGCQPVTQEDGKESRISVQERQ
notes: On transduced human T cells
Turning to B2, the binding result in assay [1] is listed as “binds”.

B3: MOV19.CD28.CD40 CoStAR (receptor, part only; not given: tag, linker, CD28 and CD40 parts, part only)
chain, part: QVQLQQSGAELVKPGASVKISCKASGYSFTGYFMNWVKQSHGKSLEWIGRIHPYDGDTFYNQNFKDKATLTVDKSSNTAHMELLSLTSEDFAVYYCTRYDGSRAMDYWGQGTTVTVSSGGGGSGGGGSGGGGSDIELTQSPASLAVSLGQRAIISCKASQSVSFAGTSLMHWYHQKPGQQPKLLIYRASNLEAGVPTRFSGSGSKTDFTLNIHPVEEEDAATYYCQQSREYPYTFGGGTKLEIK
Consider B3, for which, in assay [2], the CD137 expression worked out at 50%, the CD137 expression of CoStAR+ TIL after coculture with FolR high expressing tumour digest came out at 50%, the CD137 expression of CoStAR+ TIL after coculture with FolR low expressing tumour digest was greater than 20% and the IL-2 production turned out to be 5%. Further, in assay [2], the TNFα production amounted to 15%, the enhancement of Bcl-XL induction in the presence of OvCAR-OKT3 was 35% and the mean fold expansion of transduced T cells over 21 days with OvCAR-OKT3 (CA125+/Folate receptor+/CEA-) turned out to be 1300 fold.

B4: MOV19.CD28 CoStAR (receptor, part only; not given: tag, linker and CD28 part, part only)
chain, part: QVQLQQSGAELVKPGASVKISCKASGYSFTGYFMNWVKQSHGKSLEWIGRIHPYDGDTFYNQNFKDKATLTVDKSSNTAHMELLSLTSEDFAVYYCTRYDGSRAMDYWGQGTTVTVSSGGGGSGGGGSGGGGSDIELTQSPASLAVSLGQRAIISCKASQSVSFAGTSLMHWYHQKPGQQPKLLIYRASNLEAGVPTRFSGSGSKTDFTLNIHPVEEEDAATYYCQQSREYPYTFGGGTKLEIK
In the case of B4, in assay [2], the enhancement of Bcl-XL induction in the presence of OvCAR-OKT3 is 20%, the enhancement of IL-2 induction in the presence of OvCAR-OKT3 came out at 20% and the mean fold expansion of transduced T cells over 21 days with OvCAR-OKT3 (CA125+/Folate receptor+/CEA-) amounted to 187 fold.
